Reference: patent publication US20210130436A1 (published 2021)
Blank lines part the entries; values can stand above or below the binder they belong to.

How the values were obtained:
human CD28 [1] = molecular target: T1, human CD28 (human, UniProt P10747 19-220); assay: flow cytometry, Jurkat/IL2 reporter cells (endogenous CD28), 33.3 nM, PE anti-human Fc
T1 construct: whole, on cells; Endogenous CD28 of Jurkat/IL2 reporter cells

[2] = molecular target: T2, human CTLA-4 (CTLA4), full-length, expressed on the surface of CHO cells (human, UniProt P16410 36-223); assay: flow cytometry, CHO cells stably expressing human CTLA-4, 33.3 nM Fc fusion, PE anti-human Fc
T2 construct: also called huCTLA4

[3] = molecular target: T3, human CD28, endogenously expressed on Jurkat/IL2 reporter cells (human, UniProt P10747 19-220); assay: flow cytometry, Jurkat/IL2 reporter cells (endogenous CD28), 33.3 nM Fc fusion, PE anti-human Fc
T3 construct: This is the endogenous CD28 of Jurkat cells

[4] = molecular target: T4, human CTLA4 (huCTLA4), full-length, stably expressed on CHO cells (human, UniProt P16410 36-223); assay: flow cytometry, CHO cells expressing huCTLA4
T4 construct: whole, on cells

[5] = molecular target: T5, human PD-L1 (huPD-L1), full-length, stably expressed on CHO cells (human, UniProt Q9NZQ7 19-290); assay: flow cytometry, CHO cells expressing huPD-L1; MFI against WT CD80 of the table
T5 construct: whole, on cells

[6] = molecular target: T5, human PD-L1 (huPD-L1), full-length, …; assay: flow cytometry, CHO cells expressing huPD-L1
[7] = molecular target: T4, human CTLA4 (huCTLA4), full-length, …; assay: flow cytometry, CHO cells expressing huCTLA4; MFI against WT CD80 of the table
[8] = molecular target: T5, human PD-L1 (huPD-L1), full-length, …; assay: flow cytometry; MFI on PD-L1 CHO cells over MFI on Jurkat cells (CD28)
human PD-L1 [9] = molecular target: T6, human PD-L1 (human, UniProt Q9NZQ7 19-290); assay: flow cytometry MFI relative to WT CD80 IgV-Fc, CHO/huPD-L1 cells, 33.3 nM
T6 construct: whole, on cells; CHO cells stably expressing huPD-L1; also called huPD-L1
T6 sequence (Q9NZQ7 19-290): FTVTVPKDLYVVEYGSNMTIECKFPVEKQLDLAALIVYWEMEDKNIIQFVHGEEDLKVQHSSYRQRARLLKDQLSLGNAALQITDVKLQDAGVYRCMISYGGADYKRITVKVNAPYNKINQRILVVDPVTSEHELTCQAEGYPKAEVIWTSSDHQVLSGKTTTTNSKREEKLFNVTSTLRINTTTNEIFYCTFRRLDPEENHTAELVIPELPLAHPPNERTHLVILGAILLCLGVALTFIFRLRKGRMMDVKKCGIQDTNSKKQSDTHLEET

human CTLA-4 [10] = molecular target: T7, human CTLA-4 (human, UniProt P16410 36-223); assay: flow cytometry MFI relative to WT CD80 IgV-Fc, CHO/huCTLA-4 cells, 33.3 nM
T7 construct: whole, on cells; CHO cells stably expressing huCTLA4; also called huCTLA4
T7 sequence (P16410 36-223): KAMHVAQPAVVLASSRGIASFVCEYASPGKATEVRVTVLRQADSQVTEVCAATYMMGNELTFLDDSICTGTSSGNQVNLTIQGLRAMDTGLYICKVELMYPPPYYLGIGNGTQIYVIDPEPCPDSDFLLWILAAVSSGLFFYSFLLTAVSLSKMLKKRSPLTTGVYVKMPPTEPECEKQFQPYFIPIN

human PD-L1 [11] = molecular target: T6, human PD-L1; assay: flow cytometry, CHO cells stably expressing huPD-L1, 33.3 nM Fc fusion, PE anti-human Fc
human CD28 [12] = molecular target: T8, human CD28 (human, UniProt P10747 19-220); assay: flow cytometry, Jurkat/IL2 reporter cells (endogenous CD28), 33.3 nM Fc fusion, PE anti-human Fc
T8 construct: whole, on cells; Jurkat/IL2 reporter cells, which endogenously express CD28

human PD-L1 [13] = molecular target: T6, human PD-L1; assay: flow cytometry, MFI on CHO/huPD-L1 cells divided by MFI on Jurkat cells (CD28), 33.3 nM
human CTLA-4 [14] = molecular target: T7, human CTLA-4; assay: flow cytometry, CHO cells stably expressing huCTLA-4, 33.3 nM Fc fusion, PE anti-human Fc
human CD28 [15] = molecular target: T8, human CD28; assay: flow cytometry MFI relative to WT CD80 IgV-Fc, Jurkat cells (CD28), 33.3 nM
human PD-L1 [16] = molecular target: T9, human PD-L1 (human, UniProt Q9NZQ7 19-290); assay: flow cytometry, CHO cells stably expressing huPD-L1, 33.3 nM, PE anti-human Fc
T9 construct: whole, on cells; also called huPD-L1
T9 sequence (Q9NZQ7 19-290): as the sequence (Q9NZQ7 19-290) above

human CTLA-4 [17] = molecular target: T10, human CTLA-4 (human, UniProt P16410 36-223); assay: flow cytometry, CHO cells stably expressing huCTLA4, 33.3 nM, PE anti-human Fc
T10 construct: whole, on cells; also called huCTLA4
T10 sequence (P16410 36-223): as the sequence (P16410 36-223) above

T4 sequence (P16410 36-223): as above
T5 sequence (Q9NZQ7 19-290): as the sequence (Q9NZQ7 19-290) above
T2 sequence (P16410 36-223): as the sequence (P16410 36-223) above

B2: variant CD80 IgV-Fc E35D/M47L/A71G/L97Q (Fc fusion, not shown: a dimerising Fc or GST)
chain: VIHVTKEVKEVATLSCGHNVSVEELAQTRIYWQKDKKMVLTMMSGDLNIWPEYKNRTIFDITNNLSIVILGLRPSDEGTYECVVLKYEKDAFKREHQAEVTLSVKAD
MFI at 33.3 nM [2]: 226000 MFI
MFI at 33.3 nM [3]: 300 MFI

B3: variant CD80 IgV-Fc E35D/D46E/M47L/V68M/T79M/L85M/L97Q (Fc fusion, not shown: small tags and cut ends; a dimerising Fc or GST)
chain: VIHVTKEVKEVATLSCGHNVSVEELAQTRIYWQKDKKMVLTMMSGELNIWPEYKNRTIFDITNNLSIMILALRPSDEGMYECVVMKYEKDAFKREHQAEVTLSVKAD
MFI at 33.3 nM [4]: 96 MFI
Fold change to WT CD80 [5]: 89.7 fold
MFI at 33.3 nM [6]: 4620 MFI
Fold change to WT CD80 [7]: 0.1 fold
Ratio of PDL1:CD28 [8]: 325 ratio

B4: variant CD80 IgV-Fc (inert) H18Y/A26P/E35D/M47I/V68M/A71G (Fc fusion)
chain: VIHVTKEVKEVATLSCGYNVSVEELPQTRIYWQKDKKMVLTMMSGDINIWPEYKNRTIFDITNNLSIMILGLRPSDEGTYECVVLKYEKDAFKREHLAEVTLSVKAD
notes: not shown: inert human IgG1 Fc
Fold change to WT CD80 (human PD-L1 [9]): 330 fold
Fold change to WT CD80 (human CTLA-4 [10]): 8.8 fold
MFI at 33.3 nM (human PD-L1 [11]): 54500 MFI
MFI at 33.3 nM (human CD28 [12]): 5120 MFI
Ratio of PDL1:CD28 (human PD-L1 [13]): 10.6 ratio
MFI at 33.3 nM (human CTLA-4 [14]): 12200 MFI
Fold change to WT CD80 (human CD28 [15]): 50.2 fold

B6: variant CD80 IgV-Fc (inert) H18Y/E35D/M47V/V68M/A71G (Fc fusion)
chain: VIHVTKEVKEVATLSCGYNVSVEELAQTRIYWQKDKKMVLTMMSGDVNIWPEYKNRTIFDITNNLSIMILGLRPSDEGTYECVVLKYEKDAFKREHLAEVTLSVKAD
notes: Fc fusions are dimeric by the general description; not shown: inert human IgG1 Fc
Fold change to WT CD80 (human PD-L1 [9]): 393 fold
Fold change to WT CD80 (human CTLA-4 [10]): 17.1 fold
MFI at 33.3 nM (human PD-L1 [11]): 64900 MFI
MFI at 33.3 nM (human CD28 [12]): 3230 MFI
Ratio of PDL1:CD28 (human PD-L1 [13]): 20.1 ratio
MFI at 33.3 nM (human CTLA-4 [14]): 23600 MFI
Fold change to WT CD80 (human CD28 [15]): 31.6 fold

B8: H18Y/E35D/M47I/V68M/A71G/R94L CD80 IgV-Fc (Fc fusion, not shown: a dimerising Fc or GST)
chain: VIHVTKEVKEVATLSCGYNVSVEELAQTRIYWQKDKKMVLTMMSGDINIWPEYKNRTIFDITNNLSIMILGLRPSDEGTYECVVLKYEKDAFKLEHLAEVTLSVKAD
MFI at 33.3 nM (human CD28 [1]): 1900 MFI
MFI at 33.3 nM (human PD-L1 [16]): 14500 MFI

B9: variant CD80 IgV-Fc E24D/E35D/M47L/V68M/E95V/L97Q (Fc fusion, not shown: small tags and cut ends; a dimerising Fc or GST)
chain: VIHVTKEVKEVATLSCGHNVSVEDLAQTRIYWQKDKKMVLTMMSGDLNIWPEYKNRTIFDITNNLSIMILALRPSDEGTYECVVLKYEKDAFKRVHQAEVTLSVKAD
MFI at 33.3 nM [4]: 15500 MFI
Fold change to WT CD80 [5]: 362 fold
MFI at 33.3 nM [6]: 18600 MFI
Fold change to WT CD80 [7]: 8.8 fold
Ratio of PDL1:CD28 [8]: 1270 ratio

B10: variant CD80 IgV-Fc E35D/D46V/M47I/A71G/F92V (Fc fusion, not shown: a dimerising Fc or GST)
chain: VIHVTKEVKEVATLSCGHNVSVEELAQTRIYWQKDKKMVLTMMSGVINIWPEYKNRTIFDITNNLSIVILGLRPSDEGTYECVVLKYEKDAVKREHLAEVTLSVKAD
MFI at 33.3 nM [3]: 7540 MFI

The next lines start with the values.

MFI at 33.3 nM (human CD28 [1]): 78 MFI
B1: A26E/Q27R/E35D/M47L/N48Y/L85Q CD80 IgV-Fc (Fc fusion, not shown: a dimerising Fc or GST)
chain: VIHVTKEVKEVATLSCGHNVSVEELERTRIYWQKDKKMVLTMMSGDLYIWPEYKNRTIFDITNNLSIVILALRPSDEGTYECVVQKYEKDAFKREHLAEVTLSVKAD

MFI at 33.3 nM [4]: 15000 MFI
Fold change to WT CD80 [5]: 361 fold
MFI at 33.3 nM [6]: 18600 MFI
Fold change to WT CD80 [7]: 8.5 fold
Ratio of PDL1:CD28 [8]: 1300 ratio
B5: variant CD80 IgV-Fc E35D/M47L/V68M/E95V/L97Q (Fc fusion, not shown: small tags and cut ends; a dimerising Fc or GST)
chain: VIHVTKEVKEVATLSCGHNVSVEELAQTRIYWQKDKKMVLTMMSGDLNIWPEYKNRTIFDITNNLSIMILALRPSDEGTYECVVLKYEKDAFKRVHQAEVTLSVKAD

Fold change to WT CD80 (human PD-L1 [9]): 165 fold
Fold change to WT CD80 (human CTLA-4 [10]): 6 fold
MFI at 33.3 nM (human PD-L1 [11]): 27300 MFI
MFI at 33.3 nM (human CD28 [12]): 1820 MFI
Ratio of PDL1:CD28 (human PD-L1 [13]): 15 ratio
MFI at 33.3 nM (human CTLA-4 [14]): 8280 MFI
Fold change to WT CD80 (human CD28 [15]): 17.8 fold
B7: variant CD80 IgV-Fc (inert) H18Y/A26P/E35D/M47Y/V68I/A71G/D90G (Fc fusion)
chain: VIHVTKEVKEVATLSCGYNVSVEELPQTRIYWQKDKKMVLTMMSGDYNIWPEYKNRTIFDITNNLSIIILGLRPSDEGTYECVVLKYEKGAFKREHLAEVTLSVKAD
notes: as for B4

Fold change to WT CD80 (human PD-L1 [9]): 290 fold
Fold change to WT CD80 (human CTLA-4 [10]): 11.9 fold
MFI at 33.3 nM (human PD-L1 [11]): 47900 MFI
MFI at 33.3 nM (human CD28 [12]): 2550 MFI
Ratio of PDL1:CD28 (human PD-L1 [13]): 18.8 ratio
MFI at 33.3 nM (human CTLA-4 [14]): 16500 MFI
Fold change to WT CD80 (human CD28 [15]): 25 fold
B11: variant CD80 IgV-Fc (inert) H18Y/E35D/M47V/V68L/A71G/D90G (Fc fusion)
chain: VIHVTKEVKEVATLSCGYNVSVEELAQTRIYWQKDKKMVLTMMSGDVNIWPEYKNRTIFDITNNLSILILGLRPSDEGTYECVVLKYEKGAFKREHLAEVTLSVKAD
notes: as for B4

Fold change to WT CD80 [5]: 69.7 fold
MFI at 33.3 nM [6]: 3590 MFI
Ratio of PDL1:CD28 [8]: 215 ratio
B12: variant CD80 IgV-Fc H18Y/E35D/M38I/M47L/V68M/L85M (Fc fusion, not shown: small tags and cut ends; a dimerising Fc or GST)
chain: VIHVTKEVKEVATLSCGYNVSVEELAQTRIYWQKDKKIVLTMMSGDLNIWPEYKNRTIFDITNNLSIMILALRPSDEGTYECVVMKYEKDAFKREHLAEVTLSVKAD

MFI at 33.3 nM [4]: 178 MFI
Fold change to WT CD80 [5]: 320 fold
MFI at 33.3 nM [6]: 16500 MFI
Fold change to WT CD80 [7]: 0.1 fold
Ratio of PDL1:CD28 [8]: 1130 ratio
B13: variant CD80 IgV-Fc Q27L/Q33L/E35D/T41S/M47V/N48K/V68M/L85M (Fc fusion, not shown: small tags and cut ends; a dimerising Fc or GST)
chain: VIHVTKEVKEVATLSCGHNVSVEELALTRIYWLKDKKMVLSMMSGDVKIWPEYKNRTIFDITNNLSIMILALRPSDEGTYECVVMKYEKDAFKREHLAEVTLSVKAD

MFI at 33.3 nM (human CTLA-4 [17]): 8910 MFI
MFI at 33.3 nM (human PD-L1 [16]): 8420 MFI
B14: E35D/M47I/T62S/L85Q/E88D CD80 IgV-Fc (Fc fusion, not shown: a dimerising Fc or GST)
chain: VIHVTKEVKEVATLSCGHNVSVEELAQTRIYWQKDKKMVLTMMSGDINIWPEYKNRTIFDISNNLSIVILALRPSDEGTYECVVQKYDKDAFKREHLAEVTLSVKAD

MFI at 33.3 nM (human CD28 [1]): 30 MFI
B15: WT CD80 ECD-Fc (Fc fusion, not shown: a dimerising Fc or GST)
chain: VIHVTKEVKEVATLSCGHNVSVEELAQTRIYWQKEKKMVLTMMSGDMNIWPEYKNRTIFDITNNLSIVILALRPSDEGTYECVVLKYEKDAFKREHLAEVTLSVKADFPTPSISDFEIPTSNIRRIICSTSGGFPEPHLSWLENGEELNAINTTVSQDPETELYAVSSKLDFNMTTNHSFMCLIKYGHLRVNQTFNWNTTKQEHFPDN
notes: The label 'H22.6' is not explained; also called WT CD80 ECD-Fc H22.6

MFI at 33.3 nM [3]: 7630 MFI
B16: wild-type CD80 ECD-Fc (R&D Systems) (Fc fusion)
chain: VIHVTKEVKEVATLSCGHNVSVEELAQTRIYWQKEKKMVLTMMSGDMNIWPEYKNRTIFDITNNLSIVILALRPSDEGTYECVVLKYEKDAFKREHLAEVTLSVKADFPTPSISDFEIPTSNIRRIICSTSGGFPEPHLSWLENGEELNAINTTVSQDPETELYAVSSKLDFNMTTNHSFMCLIKYGHLRVNQTFNWNTTKQEHFPDN
notes: This is a commercial protein; also called WT CD80 ECD-Fc (R&D); unmodified CD80-ECD-Fc fusion molecule; not shown: Bought protein (R&D Systems)
